Laboratory results: the supplement of paper PMC12338614

B1: library; numbered along this chain (parent)
chain: MEVVDPQQLGMFTEGELMSVGMDTFIHRIDSTEVIYQPRRKRAKLIGKYLMGDLLGEGSYGKVKEVLDSETLCRRAVKILKKKKLRRIPNGEANVKKEIQLLRRLRHKNVIQLVDVLYNEEKQKMYMVMEYCVCGMQEMLDSVPEKRFPVCQAHGYFCQLIDGLEYLHSQGIVHKDIKPGNLLLTTGGTLKISDLGVAEALHPFAADDTCRTSQGSPAFQPPEIANGLDTFSGFKVDIWSAGVTLYNITTGLYPFEGDNIYKLFENIGKGSYAIPGDCGPPLSDLLKGMLEYEPAKRFSIRQIRQHSWFRKKHPPAEAPVPIPPSPDTKDRWRSMTVVPYLEDLHGADEDEDLFDIEDDIIYTQDFTVPGQVPEEEASHNGQRRGLPKAVCMNGTEAAQLSTKSRAEGRAPNPARKACSASSKIRRLSACKQQ

Variants of: B1
Assay: STK11 functional score (HeLa growth suppression), rescaled enrichment; synonymous median = 1, nonsense median = 0 (normalised score)
Conditions: with HeLa; variant type: missense
In short: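 The functional score takes the post/pre-selection log ratio, corrects it to wild type, rescales it to synonymous and nonsense medians, and merges it over codons and replicate transfections, with error from bootstrapping. Counts came from tiled gDNA amplicons sequenced on NextSeq (~2 million reads per tile). The libraries were POPCode codon-randomised, codon-optimised STK11 integrated by Bxb1 at an AAVS1 landing pad in HeLa, three regions with three transfections each.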

STK11 functional score of substitutions, site by site:
A410: N 1.32 | F 1.4 | L 1.42 | Q 1.21 | W 1.68 | E 1.34 | P 0.257 | Y 1.38 | H 1.23 | C 1.33 | D 1.17 | S 1.4 | V 1.32 | T 0.749 | I 1.54 | R 1.6 | G 1.23 | M 0.531 | K 1.6
K403: T 1.19 | Y 1.59 | W 1.54 | S 0.892 | V 0.598
A406: V 1.52 | Y 1.07 | K 1.28 | N 1.58 | W 1.46 | R 1.59 | M 0.606 | E 1.45 | H 1.6 | G 1.33 | T 1.42 | D 1.4 | I 1.6 | P 1.21 | L 1.57 | F 1.4 | Q 1.56 | C 1.52 | S 1.41
E407: T 1.61 | A 1.52 | W 0.194 | Q 0.809 | G 0.689 | F 1.26 | R 1.52 | I 1.61 | K 1.55 | M 1.58 | V 1.38 | P 1.6 | D 1.56 | S 1.57 | C 1.21 | L 0.778
S404: K 1.56 | L 1.47 | Y 0.966 | I 1.22 | A 1.31 | M 1.58 | H 1.6 | F 0.794 | T 1.23 | N 1.52 | W 1.43 | C 1.14 | D 1.18 | E 1.34 | V 1.53 | G 1.57
G408: M 1.56 | N 1.54 | V 1.2 | W 1.48 | A 1.61 | T 1.61 | E 1.54 | F 1.24 | Y 1.49 | I 1.51 | H 1.63 | L 1.59 | K 1.56 | S 1.59 | R 1.59
R409: N 1.55 | T 1.47 | E 1.57 | F 0.845 | I 1.24 | L 1.02 | A 1.49 | C 1.28 | K 1.39 | M 1.15 | V 1.22 | G 1.25 | D 1.09 | S 1.02 | W 1.42 | P 1.57 | Y 1.53
N412: D 1.53 | G 1.63 | S 1.48 | E 1.52 | P 1.56 | M 0.405 | V 1.33 | H 1.1 | I 1.21 | A 1.53 | R 1.57 | K 0.831 | Q 1.37 | F 1.23 | L 1.62 | C 1.11 | Y 1.55 | T 1.09 | W 0.786
R405: C 1.3 | T 1.24 | G 1.48 | L 1.59 | F 1.59 | S 1.54 | H 1.59 | V 1.62 | M 1.6 | P 1.27 | Y 0.397 | N 1.33 | K 1.33 | D 0.895 | I 1.6
P413: G 1.56 | L 1.31 | A 1.5 | I 1.56 | R 1.49 | C 1.17 | D 1.6 | K 1.55 | N 1.6 | E 1.59 | M 1.53 | H 1.61
P411: A 1.04 | I 1.55 | M 1.58 | S 1.23 | W 0.581 | K 1.57 | N 1.55 | E 1.61 | V 1.62 | D 1.59 | R 0.986 | L 1.16 | G 1.14 | F 0.906
